Laboratory results taken from patent US20180313836A1.

Target: Nrp1 immobilized on the biolayer interferometry biosensor (Homo sapiens (Human)) (UniProt O14786)
Experiment: biolayer interferometry, Nrp1 immobilized on the biosensor

Substance | Kd
human glycyl-tRNA synthetase L129P (L129P-GlyRS^CMT2D) (from UniProt P41250 55-739) (enzyme) | 0.0298 µM
human glycyl-tRNA synthetase P234KY (P234KY-GlyRS^CMT2D) (from UniProt P41250 37-739) (enzyme) | 0.209 µM
